Experimental data from patent publication US20230174617A1.

What was measured:
[1] = target: recombinant human neonatal Fc receptor (rhFcRn, R&D systems) (human) (UniProt P55899); assay: SPR, rhFcRn on CM5, analyte in PBST pH 6.0, steady state affinity
[2] = target: recombinant human neonatal Fc receptor (rhFcRn, R&D systems) (human) (UniProt P55899); assay: SPR (Biacore 8K), rhFcRn amine-coupled on CM5, analyte in PBST pH 6.0, steady state affinity

recombinant human neonatal Fc receptor (rhFcRn, R&D systems) (human), sequence (P55899 24-297 limits assumed, chain 1 of 2): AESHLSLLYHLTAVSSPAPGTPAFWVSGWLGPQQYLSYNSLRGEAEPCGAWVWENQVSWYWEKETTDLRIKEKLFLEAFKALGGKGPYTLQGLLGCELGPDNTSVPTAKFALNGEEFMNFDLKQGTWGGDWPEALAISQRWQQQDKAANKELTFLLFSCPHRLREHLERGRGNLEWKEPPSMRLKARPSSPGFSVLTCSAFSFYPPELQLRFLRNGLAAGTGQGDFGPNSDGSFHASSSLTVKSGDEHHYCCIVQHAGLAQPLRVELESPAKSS
recombinant human neonatal Fc receptor (rhFcRn, R&D systems) (human), sequence (chain, as listed by the source limits assumed, chain 2 of 2): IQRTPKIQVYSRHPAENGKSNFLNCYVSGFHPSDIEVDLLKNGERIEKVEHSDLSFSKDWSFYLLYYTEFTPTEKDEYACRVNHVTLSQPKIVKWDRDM

| Substance | Kd [1] | Kd [2] |
| --- | --- | --- |
| Rituximab (antibody) | 2.39 µM |  |
| dulaglutide (trade name Trulicity) (Fc fusion) |  | 2.09 µM |
